Results from publication PMC8708908.

Target: EcDsbB (Escherichia coli DsbB) (E. coli (endogenous in E. coli JCB817)) (UniProt P0A6M2)
Chain of UniProt P0A6M2 (P0A6M2 whole entry): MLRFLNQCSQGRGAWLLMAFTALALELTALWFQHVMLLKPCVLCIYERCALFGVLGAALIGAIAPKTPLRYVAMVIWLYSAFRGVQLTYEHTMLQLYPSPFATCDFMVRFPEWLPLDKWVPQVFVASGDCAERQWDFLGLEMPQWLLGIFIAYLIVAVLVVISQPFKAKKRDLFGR

## CjDsbA2 made in E. coli with the E. coli pelB signal sequence (ss'pelB-cjdsbA2 in pMPM-A6, pUWM1523) (enzyme)
  redox state of CjDsbA2 (AMS labelling, Western blot) in E. coli JCB817 (ΔdsbA, with EcDsbB); in JCB818 (ΔdsbAΔdsbB) mostly in the reduced form (87%) (% oxidized form): 33
